Target: T1, human IL-10 (hIL-10) (human, UniProt P22301 19-178)
T1 construct: also called human recombinant protein IL-10 (R & D Systems, cat No. 217-IL/CF); hIL-10 (e-Bioscience)
Assay: SPR (BIAcore X), human IL-10 immobilized on CM5 chip, peptide 10 µM injected
Method: To perform this assay, the Biosensor BIAcore X (BIAcore, AB, Uppsala, Sweden) was used. Briefly, human recombinant protein IL-10 (R & D Systems, cat No. 217-IL/CF) was covalently immobilized on the surface of flow cell 2 (FC2) of a CM5 chip (BIAcore), as described in De Crescenzo et al. 2001 (JBC, Vol 276; 29632-29643). Flow cell 1 (FC1), on the surface of which IL-10 is not immobilized, was used as a reference flow cell. The peptide solutions (10 μM) were injected at least twice in 10 mM Hepes buffer, pH 7.4, 150 mM NaCl, 0.005% Tween 20 (Polyoxyethylene Sorbitan Monolaurate) at a flow of 30 μl/min. The binding curves were processed by means of subtracting the response in FC1 from that obtained in FC2. The response in equilibrium was compared between the test peptide and an irrelevant control peptide of the same length. The control peptide used was peptide P301 (SEQ ID NO: 54) (derived from the HIV-1 coat, gp120 (301-315): […]). Each response was multiplied by a mass correction factor: MW(PX)/MW(P), where MW(PX) is the molecular weight of the test peptide P and MW(P) is the molecular weight of the control peptide (P301).

T1 sequence (P22301 19-178 limits assumed): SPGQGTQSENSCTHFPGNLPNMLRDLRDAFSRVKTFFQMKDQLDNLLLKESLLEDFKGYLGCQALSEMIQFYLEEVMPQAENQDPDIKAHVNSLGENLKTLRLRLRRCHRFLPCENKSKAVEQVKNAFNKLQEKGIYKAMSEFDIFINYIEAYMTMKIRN

binding result	Binder
binds	CHRCFHFRRHPVAAF (P9 with Val 14 replaced by Ala) [peptide P9 (14 Ala) (SEQ ID NO: 52)]
binds	CHRCFHFRRHPVAVA (P9 with Phe 15 replaced by Ala) [peptide P9 (15 Ala) (SEQ ID NO: 51)]
binds	HRCFHFRRHPVAV (Amino acids 2-14 of P9) [peptide P9 (2-14) (SEQ ID NO: 48)]
binds	CHRCFHFRRHPVAV (Amino acids 1-14 of P9) [peptide P9 (1-14) (SEQ ID NO: 46)]
binds	HRCFHFRRHPVA (Amino acids 2-13 of P9) [peptide P9 (2-13) (SEQ ID NO: 49)]
binds	HRCFHFRRHPVAVF (Amino acids 2-15 of P9) [peptide P9 (2-15) (SEQ ID NO: 45)]
binds	RCFHFRRHPVAV (Amino acids 3-14 of P9) [peptide P9 (3-14) (SEQ ID NO: 50)]
binds	CHRCFHFRRHPVA (Amino acids 1-13 of P9) [peptide P9 (1-13) (SEQ ID NO: 47)]
binds	SHRCFHFRRHPVA (Amino acids 1-13 of P9 with Cys 1 replaced by Ser) [peptide P9 (1-13; 1 Ser) (SEQ ID NO: 53)]

Target: biotinylated IL-10 (Homo sapiens (Human)) (UniProt P22301)
Sequence (P22301 19-178 limits assumed, form in doubt): as the sequence (P22301 19-178 limits assumed) above
Assay: phage display biopanning, 3 rounds on biotinylated IL-10 on streptavidin plates; clones sequenced

No. of colonies	Binder
29 colonies	ARWMHRHHGWSDRHR [peptide P2 (SEQ ID NO: 2)]
25 colonies	RKLRPHWLHFHPVAV [peptide P1 (SEQ ID NO: 1)]
